T1: dynamin-2 (mouse (endogenous in bEnd3), UniProt P39054 1-870)
T1 construct: dynamin-2, endogenous in mouse brain endothelial cells (bEnd3); source: endogenous, bEnd3 mouse brain endothelial cells (fixed, permeabilized)
T1 sequence (looked up): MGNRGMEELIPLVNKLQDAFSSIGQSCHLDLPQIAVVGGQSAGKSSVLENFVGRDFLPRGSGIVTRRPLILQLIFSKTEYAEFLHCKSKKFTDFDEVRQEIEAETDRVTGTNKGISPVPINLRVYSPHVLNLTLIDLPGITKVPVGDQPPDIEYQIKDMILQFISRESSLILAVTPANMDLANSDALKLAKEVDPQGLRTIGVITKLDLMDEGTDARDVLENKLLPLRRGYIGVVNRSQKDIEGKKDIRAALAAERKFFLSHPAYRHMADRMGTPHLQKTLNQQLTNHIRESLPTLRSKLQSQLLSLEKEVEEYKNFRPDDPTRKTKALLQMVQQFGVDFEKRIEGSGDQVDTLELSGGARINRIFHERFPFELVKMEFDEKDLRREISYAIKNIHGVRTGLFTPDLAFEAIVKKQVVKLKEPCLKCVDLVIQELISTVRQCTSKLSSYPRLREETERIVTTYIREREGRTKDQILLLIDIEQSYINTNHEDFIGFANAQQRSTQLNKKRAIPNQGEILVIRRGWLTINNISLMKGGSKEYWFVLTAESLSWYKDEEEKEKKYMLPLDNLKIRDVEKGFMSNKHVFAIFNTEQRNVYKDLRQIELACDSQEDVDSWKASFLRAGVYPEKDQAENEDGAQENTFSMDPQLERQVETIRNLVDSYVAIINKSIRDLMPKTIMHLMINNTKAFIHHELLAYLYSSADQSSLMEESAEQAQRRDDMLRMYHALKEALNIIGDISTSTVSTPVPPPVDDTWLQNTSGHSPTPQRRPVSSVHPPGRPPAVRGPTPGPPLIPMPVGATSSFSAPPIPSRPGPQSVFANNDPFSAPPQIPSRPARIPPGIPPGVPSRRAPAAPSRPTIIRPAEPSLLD

T2: EEA-1 (mouse (endogenous in bEnd3), UniProt Q8BL66 1-1411)
T2 construct: EEA-1 (early endosome marker), endogenous in mouse brain endothelial cells (bEnd3); also called early endosomes (EEA-1); source: endogenous, bEnd3 mouse brain endothelial cells (fixed, permeabilized)
T2 sequence (looked up): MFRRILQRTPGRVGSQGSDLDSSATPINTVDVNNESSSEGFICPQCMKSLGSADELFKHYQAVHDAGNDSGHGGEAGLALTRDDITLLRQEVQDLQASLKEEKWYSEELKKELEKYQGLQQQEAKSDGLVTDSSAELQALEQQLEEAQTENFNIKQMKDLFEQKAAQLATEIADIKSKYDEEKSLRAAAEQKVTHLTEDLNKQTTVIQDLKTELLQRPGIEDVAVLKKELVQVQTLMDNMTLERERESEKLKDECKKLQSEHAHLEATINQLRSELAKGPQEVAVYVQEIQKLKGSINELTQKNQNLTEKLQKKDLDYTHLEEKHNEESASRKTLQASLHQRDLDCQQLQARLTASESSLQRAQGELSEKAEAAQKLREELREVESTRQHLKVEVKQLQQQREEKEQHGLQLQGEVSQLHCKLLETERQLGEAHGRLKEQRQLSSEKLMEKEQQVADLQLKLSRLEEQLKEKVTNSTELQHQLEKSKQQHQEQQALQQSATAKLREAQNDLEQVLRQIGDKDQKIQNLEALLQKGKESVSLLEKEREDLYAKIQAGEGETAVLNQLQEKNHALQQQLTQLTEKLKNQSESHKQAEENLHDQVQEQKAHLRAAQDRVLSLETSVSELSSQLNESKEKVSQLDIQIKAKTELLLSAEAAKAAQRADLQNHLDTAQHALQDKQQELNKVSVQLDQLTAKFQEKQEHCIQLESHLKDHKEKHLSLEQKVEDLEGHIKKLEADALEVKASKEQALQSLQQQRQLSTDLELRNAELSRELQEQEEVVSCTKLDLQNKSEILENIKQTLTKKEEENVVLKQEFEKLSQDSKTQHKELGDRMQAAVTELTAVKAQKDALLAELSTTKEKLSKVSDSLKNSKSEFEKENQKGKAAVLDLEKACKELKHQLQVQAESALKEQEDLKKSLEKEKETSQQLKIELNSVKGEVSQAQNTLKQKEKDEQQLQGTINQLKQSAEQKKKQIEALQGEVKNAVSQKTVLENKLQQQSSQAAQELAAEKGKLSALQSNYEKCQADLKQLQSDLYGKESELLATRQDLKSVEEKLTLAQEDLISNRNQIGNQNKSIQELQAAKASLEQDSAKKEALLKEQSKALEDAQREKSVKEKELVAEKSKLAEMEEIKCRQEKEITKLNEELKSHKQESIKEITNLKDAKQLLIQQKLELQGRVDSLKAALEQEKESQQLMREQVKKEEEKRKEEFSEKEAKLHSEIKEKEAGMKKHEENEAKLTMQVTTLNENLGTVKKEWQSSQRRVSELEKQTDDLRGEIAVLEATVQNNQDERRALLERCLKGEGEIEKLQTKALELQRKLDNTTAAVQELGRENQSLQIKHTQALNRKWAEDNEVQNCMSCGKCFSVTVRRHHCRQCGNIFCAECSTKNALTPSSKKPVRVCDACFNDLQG

B1: apolipoprotein E (ligand, mouse (endogenous in bEnd3), UniProt P08226 19-311, looked up)
chain: EGEPEVTDQLEWQSNQPWEQALNRFWDYLRWVQTLSDQVQEELQSSQVTQELTALMEDTMTEVKAYKKELEEQLGPVAEETRARLGKEVQAAQARLGADMEDLRNRLGQYRNEVHTMLGQSTEEIRARLSTHLRKMRKRLMRDAEDLQKRLAVYKAGAREGAERGVSAIRERLGPLVEQGRQRTANLGAGAAQPLRDRAQAFGDRIRGRLEEVGNQARDRLEEVREHMEEVRSKMEEQTQQIRLQAEIFQARLKGWFEPIVEDMHRQWANLMEKIQASVATNPIITPVAQENQ
notes: apolipoprotein E (ApoE), detected in mouse brain endothelial cells (bEnd3); also called ApoE; source: endogenous, bEnd3 mouse brain endothelial cells (fixed, permeabilized)

What was measured:
Assay in all cases: proximity ligation; Duolink PLA between two endogenous proteins in polarized bEnd3 monolayers, fixed in 4% PFA and permeabilized with 0.1% Triton X-100; two primary antibodies overnight at 4°C; PLA signal normalized by the number of nuclei; also in shRNA control (scramble) and syndapin-2 knockdown cells, and after FAM-Aβ (1–40) or Aβ monomers, oligomers or fibrils for 15 min
Conditions in all cases: partners not purified
dynamin-2 = molecular target: T1, dynamin-2
[1] = molecular target: T3, low-density lipoprotein receptor-related protein 1 (mouse (endogenous in bEnd3), UniProt Q91ZX7 20-4545)
T3 construct: low-density lipoprotein receptor-related protein 1 (LRP1), endogenous in mouse brain endothelial cells (bEnd3); also called LRP1; source: endogenous, bEnd3 mouse brain endothelial cells (fixed, permeabilized)
T3 sequence (Q91ZX7 20-4545): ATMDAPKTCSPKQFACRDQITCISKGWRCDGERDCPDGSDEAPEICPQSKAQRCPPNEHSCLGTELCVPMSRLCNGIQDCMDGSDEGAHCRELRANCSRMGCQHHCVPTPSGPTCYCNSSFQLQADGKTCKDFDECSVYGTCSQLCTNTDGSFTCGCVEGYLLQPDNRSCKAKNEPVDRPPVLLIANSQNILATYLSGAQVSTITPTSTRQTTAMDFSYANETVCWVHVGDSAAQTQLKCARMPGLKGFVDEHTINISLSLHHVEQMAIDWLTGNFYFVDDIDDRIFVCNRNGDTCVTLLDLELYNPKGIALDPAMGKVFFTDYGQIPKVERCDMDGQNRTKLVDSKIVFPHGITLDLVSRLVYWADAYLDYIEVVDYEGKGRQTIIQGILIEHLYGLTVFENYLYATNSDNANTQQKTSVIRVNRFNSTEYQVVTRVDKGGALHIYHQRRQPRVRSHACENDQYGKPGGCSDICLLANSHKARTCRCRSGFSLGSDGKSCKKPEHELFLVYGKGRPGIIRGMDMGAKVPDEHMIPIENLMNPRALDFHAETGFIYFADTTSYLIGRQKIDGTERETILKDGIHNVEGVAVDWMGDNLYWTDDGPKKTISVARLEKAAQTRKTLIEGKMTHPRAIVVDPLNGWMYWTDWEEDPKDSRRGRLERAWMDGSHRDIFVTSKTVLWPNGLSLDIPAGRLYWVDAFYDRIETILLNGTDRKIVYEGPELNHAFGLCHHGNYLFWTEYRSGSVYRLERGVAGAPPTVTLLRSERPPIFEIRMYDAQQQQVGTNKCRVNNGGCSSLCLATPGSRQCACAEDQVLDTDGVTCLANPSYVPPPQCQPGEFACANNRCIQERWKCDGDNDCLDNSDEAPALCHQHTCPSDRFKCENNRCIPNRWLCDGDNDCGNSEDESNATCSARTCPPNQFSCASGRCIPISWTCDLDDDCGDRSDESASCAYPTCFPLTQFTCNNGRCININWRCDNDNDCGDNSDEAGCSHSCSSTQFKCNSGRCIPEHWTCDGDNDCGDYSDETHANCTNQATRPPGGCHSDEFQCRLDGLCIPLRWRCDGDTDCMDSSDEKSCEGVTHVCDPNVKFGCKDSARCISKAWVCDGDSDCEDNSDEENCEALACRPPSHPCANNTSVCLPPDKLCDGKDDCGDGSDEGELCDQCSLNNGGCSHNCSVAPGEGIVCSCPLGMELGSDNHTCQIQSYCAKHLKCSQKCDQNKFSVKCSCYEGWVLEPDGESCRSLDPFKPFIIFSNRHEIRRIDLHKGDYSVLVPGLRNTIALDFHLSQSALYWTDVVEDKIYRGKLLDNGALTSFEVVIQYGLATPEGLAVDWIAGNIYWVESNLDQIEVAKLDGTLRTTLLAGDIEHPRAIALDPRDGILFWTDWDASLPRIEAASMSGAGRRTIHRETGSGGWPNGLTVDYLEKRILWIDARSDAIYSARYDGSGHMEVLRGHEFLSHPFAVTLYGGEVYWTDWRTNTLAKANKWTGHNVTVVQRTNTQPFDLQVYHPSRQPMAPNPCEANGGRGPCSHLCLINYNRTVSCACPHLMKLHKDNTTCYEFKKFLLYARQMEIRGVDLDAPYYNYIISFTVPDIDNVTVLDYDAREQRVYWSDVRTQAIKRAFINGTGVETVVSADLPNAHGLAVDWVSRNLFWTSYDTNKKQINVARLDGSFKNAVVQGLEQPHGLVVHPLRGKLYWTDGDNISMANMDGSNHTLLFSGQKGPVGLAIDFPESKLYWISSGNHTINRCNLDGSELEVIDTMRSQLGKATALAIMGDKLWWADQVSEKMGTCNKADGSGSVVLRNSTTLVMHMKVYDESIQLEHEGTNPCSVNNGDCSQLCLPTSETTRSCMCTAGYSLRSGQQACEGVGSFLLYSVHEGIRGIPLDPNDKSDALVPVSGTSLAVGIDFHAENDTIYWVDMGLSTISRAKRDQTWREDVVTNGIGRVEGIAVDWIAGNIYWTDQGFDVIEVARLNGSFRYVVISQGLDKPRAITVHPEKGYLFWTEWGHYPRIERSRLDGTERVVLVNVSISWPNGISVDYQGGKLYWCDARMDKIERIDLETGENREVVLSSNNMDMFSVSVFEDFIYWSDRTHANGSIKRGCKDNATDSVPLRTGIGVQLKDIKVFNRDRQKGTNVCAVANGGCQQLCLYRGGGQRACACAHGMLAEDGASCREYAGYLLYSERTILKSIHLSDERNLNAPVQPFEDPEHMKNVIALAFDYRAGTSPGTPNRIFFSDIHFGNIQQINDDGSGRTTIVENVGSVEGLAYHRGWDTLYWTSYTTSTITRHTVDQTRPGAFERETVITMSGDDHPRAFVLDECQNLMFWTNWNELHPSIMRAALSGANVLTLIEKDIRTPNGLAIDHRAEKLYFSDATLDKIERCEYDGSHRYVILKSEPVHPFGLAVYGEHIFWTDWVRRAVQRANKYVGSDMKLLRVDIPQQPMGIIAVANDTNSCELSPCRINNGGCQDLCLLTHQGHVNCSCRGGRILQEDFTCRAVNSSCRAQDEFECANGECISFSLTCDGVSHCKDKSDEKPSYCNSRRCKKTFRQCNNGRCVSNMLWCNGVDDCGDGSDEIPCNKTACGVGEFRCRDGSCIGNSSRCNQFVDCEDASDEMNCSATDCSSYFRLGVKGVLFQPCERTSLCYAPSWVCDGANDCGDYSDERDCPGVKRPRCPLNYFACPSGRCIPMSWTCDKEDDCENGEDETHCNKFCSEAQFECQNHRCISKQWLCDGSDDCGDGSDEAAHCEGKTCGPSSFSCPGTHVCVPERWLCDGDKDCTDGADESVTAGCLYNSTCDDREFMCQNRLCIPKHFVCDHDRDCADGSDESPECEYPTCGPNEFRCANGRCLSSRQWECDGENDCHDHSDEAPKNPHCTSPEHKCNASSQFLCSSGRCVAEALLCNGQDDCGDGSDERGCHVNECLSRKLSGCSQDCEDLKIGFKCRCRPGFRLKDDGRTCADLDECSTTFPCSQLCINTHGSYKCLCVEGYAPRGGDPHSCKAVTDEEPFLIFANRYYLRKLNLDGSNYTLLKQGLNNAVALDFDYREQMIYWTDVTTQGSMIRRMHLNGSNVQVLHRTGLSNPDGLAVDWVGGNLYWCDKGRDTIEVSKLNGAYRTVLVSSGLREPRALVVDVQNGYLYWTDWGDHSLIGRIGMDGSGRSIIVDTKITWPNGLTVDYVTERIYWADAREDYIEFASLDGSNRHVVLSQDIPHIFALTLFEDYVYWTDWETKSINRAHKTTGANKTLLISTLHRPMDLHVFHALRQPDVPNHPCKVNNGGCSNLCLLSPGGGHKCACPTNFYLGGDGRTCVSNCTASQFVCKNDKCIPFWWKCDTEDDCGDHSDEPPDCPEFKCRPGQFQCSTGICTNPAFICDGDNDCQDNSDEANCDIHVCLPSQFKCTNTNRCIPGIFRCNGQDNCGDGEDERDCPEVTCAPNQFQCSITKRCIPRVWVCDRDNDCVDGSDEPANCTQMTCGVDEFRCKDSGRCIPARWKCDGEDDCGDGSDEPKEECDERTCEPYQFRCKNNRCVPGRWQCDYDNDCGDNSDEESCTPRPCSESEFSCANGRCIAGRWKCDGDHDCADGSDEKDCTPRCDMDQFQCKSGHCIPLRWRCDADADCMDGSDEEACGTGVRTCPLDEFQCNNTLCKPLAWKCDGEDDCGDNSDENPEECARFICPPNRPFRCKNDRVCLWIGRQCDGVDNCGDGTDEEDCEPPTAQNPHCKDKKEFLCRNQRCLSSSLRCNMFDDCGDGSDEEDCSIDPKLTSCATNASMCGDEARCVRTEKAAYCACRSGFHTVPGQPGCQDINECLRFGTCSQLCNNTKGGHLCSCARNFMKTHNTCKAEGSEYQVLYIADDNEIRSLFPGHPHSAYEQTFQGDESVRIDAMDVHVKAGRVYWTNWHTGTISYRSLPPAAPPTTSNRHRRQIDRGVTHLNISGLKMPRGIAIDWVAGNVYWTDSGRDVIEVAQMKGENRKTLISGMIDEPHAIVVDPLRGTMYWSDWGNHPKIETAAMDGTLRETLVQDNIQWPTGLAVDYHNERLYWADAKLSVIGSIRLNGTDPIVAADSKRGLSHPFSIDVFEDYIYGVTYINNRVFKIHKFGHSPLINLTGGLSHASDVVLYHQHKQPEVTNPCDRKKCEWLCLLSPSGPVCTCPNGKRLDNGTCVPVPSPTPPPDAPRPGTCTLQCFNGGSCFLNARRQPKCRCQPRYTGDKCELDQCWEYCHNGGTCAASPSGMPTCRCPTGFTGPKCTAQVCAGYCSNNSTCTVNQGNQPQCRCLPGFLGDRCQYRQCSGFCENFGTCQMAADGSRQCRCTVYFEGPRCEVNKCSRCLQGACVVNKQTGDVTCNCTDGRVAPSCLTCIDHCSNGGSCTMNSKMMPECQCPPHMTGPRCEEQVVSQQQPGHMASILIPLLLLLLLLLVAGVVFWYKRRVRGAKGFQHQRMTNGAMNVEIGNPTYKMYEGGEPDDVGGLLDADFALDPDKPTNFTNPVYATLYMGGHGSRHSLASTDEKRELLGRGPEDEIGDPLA

β-actin = β-actin (mouse (endogenous in bEnd3), UniProt P60710 1-375)
heavy chain of clathrin = molecular target: T4, heavy chain of clathrin (mouse (endogenous in bEnd3), UniProt Q68FD5 1-1675)
T4 construct: clathrin heavy chain, endogenous in mouse brain endothelial cells (bEnd3); source: endogenous, bEnd3 mouse brain endothelial cells (fixed, permeabilized)

apolipoprotein E = molecular target: B1
EEA-1 = molecular target: T2, EEA-1

Binder | PLA dots per cell (dynamin-2) [dots per cell] | PLA dots per cell [1] [dots per cell] | PLA dots per cell (β-actin) [dots per cell] | PLA dots per cell (heavy chain of clathrin) [dots per cell] | PLA dots per cell (apolipoprotein E) [dots per cell] | PLA dots per cell (EEA-1) [dots per cell]
syndapin-2 (natural protein, mouse (endogenous in bEnd3), UniProt Q9WVE8 1-486, looked up, syndapin-2 (PACSIN-2), F-BAR protein, endogenous in mouse brain endothelial cells (bEnd3); also called PACSIN-2; Syn-2; source: endogenous, bEnd3 mouse brain endothelial cells (fixed, permeabilized)) MSVTYDDSVGVEVSSDSFWEVGNYKRTVKRIDDGHRLCGDLMNCLHERARIEKAYAQQLTEWARRWRQLVEKGPQYGTVEKAWIAVMSEAERVSELHLEVKASLMNEDFEKIKNWQKEAFHKQMMGGFKETKEAEDGFRKAQKPWAKKLKEVEAAKKAHHTACKEEKLAISREANSKADPSLNPEQLKKLQDKIEKCKQDVLKTKDKYEKSLKELDQTTPQYMENMEQVFEQCQQFEEKRLRFFREVLLEVQKHLDLSNVASYKTIYRELEQSIKAADAVEDLRWFRANHGPGMAMNWPQFEEWSADLNRTLSRREKKKAVDGVTLTGINQTGDQSGQNKPGSNLSVPSNPAQSTQLQSSYNPFEDEDDTGSSISEKEDIKAKNVSSYEKTQTYPTDWSDDESNNPFSSTDANGDSNPFDEDTTSGTEVRVRALYDYEGQEHDELSFKAGDELTKIEDEDEQGWCKGRLDSGQVGLYPANYVEAIQ | ~150 | ~250 | ~150 | ~150 | ~250 | < 20
B1 | – | ~80 | – | – | – | –

— paper PMC8882007, “Syndapin-2 mediated transcytosis of amyloid-β across the blood–brain barrier” (Brain Communications, 2022)
